# System: N
# Assay: purified protein, by the assay type
# Ser445-hGDH2 (Homo sapiens), sequence (chain, as listed by the source): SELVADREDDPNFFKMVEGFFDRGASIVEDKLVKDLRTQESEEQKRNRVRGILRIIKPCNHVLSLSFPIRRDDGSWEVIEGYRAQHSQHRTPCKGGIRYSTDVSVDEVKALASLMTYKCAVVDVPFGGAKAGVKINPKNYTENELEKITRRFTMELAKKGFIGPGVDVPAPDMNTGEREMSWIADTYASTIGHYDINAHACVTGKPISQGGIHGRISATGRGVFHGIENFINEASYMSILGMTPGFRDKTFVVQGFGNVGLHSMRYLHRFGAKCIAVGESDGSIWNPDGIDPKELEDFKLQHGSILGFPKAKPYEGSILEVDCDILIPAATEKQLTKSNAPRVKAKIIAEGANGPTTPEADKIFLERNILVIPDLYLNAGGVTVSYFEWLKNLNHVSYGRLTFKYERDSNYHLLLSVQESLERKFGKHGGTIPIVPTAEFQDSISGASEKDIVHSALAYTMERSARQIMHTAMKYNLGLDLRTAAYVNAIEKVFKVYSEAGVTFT
# Ala445-hGDH2 (Homo sapiens; S498A), sequence (chain, as listed by the source S498A): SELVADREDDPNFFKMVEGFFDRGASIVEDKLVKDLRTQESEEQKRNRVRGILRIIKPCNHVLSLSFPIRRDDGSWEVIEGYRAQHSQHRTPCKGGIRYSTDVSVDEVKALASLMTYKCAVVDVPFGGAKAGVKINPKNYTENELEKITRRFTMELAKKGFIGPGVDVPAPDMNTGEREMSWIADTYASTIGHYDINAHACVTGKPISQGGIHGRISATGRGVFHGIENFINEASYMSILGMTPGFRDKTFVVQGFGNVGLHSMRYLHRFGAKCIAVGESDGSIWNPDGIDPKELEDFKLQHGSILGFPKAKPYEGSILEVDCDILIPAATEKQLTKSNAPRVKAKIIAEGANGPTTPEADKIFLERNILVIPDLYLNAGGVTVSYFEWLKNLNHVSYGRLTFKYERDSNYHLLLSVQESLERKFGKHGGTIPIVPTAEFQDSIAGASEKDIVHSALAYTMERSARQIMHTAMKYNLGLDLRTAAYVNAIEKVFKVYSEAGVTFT
row,Substance,Km
1,Ser445-hGDH2 (Homo sapiens),17.05 ± 2.01 mM
2,hGDH1 (Homo sapiens),13.39 ± 0.72 mM
3,Ala445-hGDH2 (Homo sapiens; S498A),21.36 ± 3.56 mM
